# Experimental data published in US20160263148A1 (University of Washington, published 2016).
# Positions of bridges follow the written chain, without caps; N, C: chain ends. Non-standard residues stand in square brackets, D forms with d. p(HEMA-co-NHSMA) = copolymer of 2-hydroxyethyl methacrylate and N-hydroxysuccinimidyl ester methacrylate; Hyp = O=C(O)[C@@H]1C[C@@H](O)CN1
# T1: Fibrin (pure fibrin clots formed from fibrinogen and thrombin) (UniProt P02671 36-629; P02675 45-491; P02679 27-437, limits assumed)
# T1 sequence (looked up) 1: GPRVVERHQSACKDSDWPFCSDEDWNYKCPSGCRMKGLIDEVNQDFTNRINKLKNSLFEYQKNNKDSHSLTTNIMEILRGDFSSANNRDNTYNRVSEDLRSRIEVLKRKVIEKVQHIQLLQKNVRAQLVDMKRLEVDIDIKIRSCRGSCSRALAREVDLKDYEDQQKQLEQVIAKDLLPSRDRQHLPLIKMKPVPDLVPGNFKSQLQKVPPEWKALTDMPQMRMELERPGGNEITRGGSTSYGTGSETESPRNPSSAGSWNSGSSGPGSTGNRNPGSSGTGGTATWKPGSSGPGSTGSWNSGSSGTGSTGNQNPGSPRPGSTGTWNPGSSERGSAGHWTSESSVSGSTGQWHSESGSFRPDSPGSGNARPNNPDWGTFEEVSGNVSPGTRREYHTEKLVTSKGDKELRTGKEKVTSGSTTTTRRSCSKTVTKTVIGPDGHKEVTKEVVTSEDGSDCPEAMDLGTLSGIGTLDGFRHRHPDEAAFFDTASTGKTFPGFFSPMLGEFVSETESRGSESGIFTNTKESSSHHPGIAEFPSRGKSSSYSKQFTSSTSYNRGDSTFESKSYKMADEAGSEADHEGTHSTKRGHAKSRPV
# T1 sequence (looked up) 2: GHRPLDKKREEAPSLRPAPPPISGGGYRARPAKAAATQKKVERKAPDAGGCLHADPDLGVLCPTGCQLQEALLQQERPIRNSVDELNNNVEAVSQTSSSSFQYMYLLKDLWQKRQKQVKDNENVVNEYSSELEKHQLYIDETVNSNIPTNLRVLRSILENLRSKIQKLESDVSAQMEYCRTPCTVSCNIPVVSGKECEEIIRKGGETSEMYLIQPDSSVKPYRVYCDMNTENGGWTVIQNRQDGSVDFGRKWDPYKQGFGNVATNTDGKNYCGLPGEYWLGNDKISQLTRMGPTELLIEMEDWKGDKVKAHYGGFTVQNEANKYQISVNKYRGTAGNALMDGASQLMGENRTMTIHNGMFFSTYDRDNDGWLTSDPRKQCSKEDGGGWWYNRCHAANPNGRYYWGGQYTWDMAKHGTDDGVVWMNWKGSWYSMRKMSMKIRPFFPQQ
# T1 sequence (looked up) 3: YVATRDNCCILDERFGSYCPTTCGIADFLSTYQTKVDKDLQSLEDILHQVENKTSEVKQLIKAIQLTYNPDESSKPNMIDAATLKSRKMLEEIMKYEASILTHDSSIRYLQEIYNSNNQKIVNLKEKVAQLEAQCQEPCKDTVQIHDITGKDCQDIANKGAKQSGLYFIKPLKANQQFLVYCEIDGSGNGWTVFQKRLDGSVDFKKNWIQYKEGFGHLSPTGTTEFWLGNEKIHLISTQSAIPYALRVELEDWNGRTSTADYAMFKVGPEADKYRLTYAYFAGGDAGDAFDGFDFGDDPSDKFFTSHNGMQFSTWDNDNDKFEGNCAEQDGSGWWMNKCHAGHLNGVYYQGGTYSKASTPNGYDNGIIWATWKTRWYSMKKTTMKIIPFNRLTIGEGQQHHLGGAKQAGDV
# T2: Fibrin (pure fibrin clots formed from fibrinogen and thrombin), P02671
# T2 chain 1: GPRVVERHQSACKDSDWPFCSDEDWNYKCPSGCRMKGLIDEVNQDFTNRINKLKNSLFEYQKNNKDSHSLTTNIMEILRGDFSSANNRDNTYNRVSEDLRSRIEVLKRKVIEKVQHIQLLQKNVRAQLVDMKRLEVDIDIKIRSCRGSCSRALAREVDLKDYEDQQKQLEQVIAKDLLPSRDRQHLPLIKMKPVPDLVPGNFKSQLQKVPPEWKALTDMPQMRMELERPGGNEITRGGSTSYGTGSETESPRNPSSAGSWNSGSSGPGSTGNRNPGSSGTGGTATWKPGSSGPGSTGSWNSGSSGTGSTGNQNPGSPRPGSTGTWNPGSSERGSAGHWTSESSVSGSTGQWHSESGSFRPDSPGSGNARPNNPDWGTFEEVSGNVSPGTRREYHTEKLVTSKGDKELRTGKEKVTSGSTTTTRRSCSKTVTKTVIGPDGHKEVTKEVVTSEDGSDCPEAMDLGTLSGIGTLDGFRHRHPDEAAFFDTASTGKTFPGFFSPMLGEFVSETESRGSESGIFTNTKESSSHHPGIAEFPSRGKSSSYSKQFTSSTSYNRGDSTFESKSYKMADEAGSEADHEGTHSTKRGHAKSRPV
# T2 chain 2: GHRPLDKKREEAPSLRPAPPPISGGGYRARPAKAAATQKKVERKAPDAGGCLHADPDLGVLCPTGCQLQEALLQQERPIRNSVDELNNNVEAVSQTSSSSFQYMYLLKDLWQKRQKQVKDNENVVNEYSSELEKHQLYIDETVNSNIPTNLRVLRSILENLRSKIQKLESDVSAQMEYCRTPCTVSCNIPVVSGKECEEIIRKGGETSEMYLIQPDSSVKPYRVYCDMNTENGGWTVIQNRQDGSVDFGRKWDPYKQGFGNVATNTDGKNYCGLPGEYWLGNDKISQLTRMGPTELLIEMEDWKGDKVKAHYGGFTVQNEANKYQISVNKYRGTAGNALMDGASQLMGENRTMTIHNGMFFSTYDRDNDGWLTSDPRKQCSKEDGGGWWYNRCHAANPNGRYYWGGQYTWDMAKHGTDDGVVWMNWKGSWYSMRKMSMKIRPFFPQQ
# T2 chain 3: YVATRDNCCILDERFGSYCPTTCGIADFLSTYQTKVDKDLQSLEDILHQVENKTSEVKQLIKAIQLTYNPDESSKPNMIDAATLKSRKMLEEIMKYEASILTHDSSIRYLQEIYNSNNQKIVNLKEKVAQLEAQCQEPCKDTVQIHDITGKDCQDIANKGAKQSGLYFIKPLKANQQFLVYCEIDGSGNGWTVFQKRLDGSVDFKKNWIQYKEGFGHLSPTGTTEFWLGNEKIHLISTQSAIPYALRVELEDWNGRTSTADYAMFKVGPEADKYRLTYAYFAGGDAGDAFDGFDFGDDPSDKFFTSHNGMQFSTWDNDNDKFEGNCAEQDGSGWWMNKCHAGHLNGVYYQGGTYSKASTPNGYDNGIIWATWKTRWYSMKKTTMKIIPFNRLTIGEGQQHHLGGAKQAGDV
# Tests used:
# [1] = target: T1, Fibrin (pure fibrin clots formed from …); experiment: cell-based or functional assay
# [2] = target: T2, Fibrin (pure fibrin clots formed from …)
Binder,"clot strength (MA, TEG) relative to controls [1] [times]",pore radius of fibrin clots (permeation study) [2] [nm]
"Ac-Y[dE]C[Hyp]YGLCYIQGK(p(HEMA-co-NHSMA))-NH2 (other, disulfide 3-8; also: about 16 peptides grafted per polymer backbone)",2.5,–
Human Factor XIIIa (HFXIIIa) (protein) GVNLQEFLNVTSVHLFKERWDTNKVDHHTDKYENNKLIVRRGQSFYVQIDFSRPYDPRRDLFRVEYVIGRYPQENKGTYIPVPIVSELQSGKWGAKIVMREDRSVRLSIQSSPKCIVGKFRMYVAVWTPYGVLRTSRNPETDTYILFNPWCEDDAVYLDNEKEREEYVLNDIGVIFYGEVNDIKTRSWSYGQFEDGILDTCLYVMDRAQMDLSGRGNPIKVSRVGSAMVNAKDDEGVLVGSWDNIYAYGVPPSAWTGSVDILLEYRSSENPVRYGQCWVFAGVFNTFLRCLGIPARIVTNYFSAHDNDANLQMDIFLEEDGNVNSKLTKDSVWNYHCWNEAWMTRPDLPVGFGGWQAVDSTPQENSDGMYRCGPASVQAIKHGHVCFQFDAPFVFAEVNSDLIYITAKKDGTHVVENVDATHIGKLIVTKQIGGDGMMDITDTYKFQEGQEEERLALETALMYGAKKPLNTEGVMKSRSNVDMDFEVENAVLGKDFKLSITFRNNSHNRYTITAYLSANITFYTGVPKAEFKKETFDVTLEPLSFKKEAVLIQAGEYMGQLLEQASLHFFVTARINETRDVLAKQKSTVLTIPEIIIKVRGTQVVGSDMTVTVEFTNPLKETLRNVWVHLDGPGVTRPMKKMFREIRPNSTVQWEEVCRPWVSGHRKLIASMSSDSLRHVYGELDVQIQRRPSM,–,286±18
